{"source": "patent US8445240B2", "about": "“Termite enzymes and uses thereof for in vitro conversion of lignin-containing materials to fermentable products” (University of Florida Research Foundation, Inc., priority 2009, dated 2013)", "molecules": {"B1": {"name": "RfLacA (Reticulitermes flavipes) (protein)", "chain": "TSVLLNSYLQPNDDIDRNTYLLNAKSNNCARICNGTEAPKICYYQWTIENYVTLSEACDNCPLNVTACYNAQCITADGYERSILSVNRKLPGPSIEVCLRDRVIVDITNNMAGRTTSIHWHGVFQKGSQYMDGVPMVTQCTIHEGDTFRYDFIANNEGTHFWHSHDGLQKLDGVTGNLVVRVPKNFDPNGQLYDFDLPEHKIFISDWLHLSADDHFPGLRATNPGQDANSFLINGRGRTLIGTQSTNTPYAQINVQWGRRYRLRIVGSLCTVCPTQLTIDGHKITVIATDGNSVAPARVDSLIIYSGERYDVVLEATNTEGSYWIHLKGLATCVGSRVYQLGVLQYENTTTNKLHALTPDPGYDGFPQPASYRVLNPENASCSIGSTGLCVTQLANSDPVPRDILTQLPDINYLLQFGFETFDSRSFFKAYDRYFVSPFLELLSSTVNNISFVSPPSPLLSQRGDVPDDILCPTGADGLPQCPGGNSYCTCVHVIKIKLGALVQIILSDQSPKSDLNHPFHIHGHAFYVLGMGQYAAGQTAQDLLNSLKSNVSSVSPAPVLKDTVAVPSGGYAIIKFRPKNPGYWFLHCHFLYHVATGMSVVLQVGETSDYPPTPDGFPKCGSFTPPVNTN"}, "B2": {"name": "recombinant RfBGluc-1 β-glucosidase (Reticulitermes flavipes) (protein)", "chain": "ADVDNETLFTFPEDFKLGAATASYQIEGGWNADGKGVNIWDTLTHERSQLVVDKSSGDVADDSYHLYKEDVKLLKNMGAQLYRFSISWARILPEGHDNKVNQAGIEYYNKLIDELLDNGIEPMVTMYHWDLPQTLQDLGGWPNRELAKYSENYARVLFQNFGDRVKLWLTFNEPLTFMDAYASETGMAPSIDTPGIGDYLAAHTVILAHANIYRMYEREFKEEQKGKVGIALNIHWCEPVTNSTKDVEACERYQQFNLGIYAHPIFSVEGDYPSVLKARVDANSVTEGYTTSRLPKFTTEEVDFIRGTHDFLGLNFYTAVTGADGVEGEPPSRYRDMGAITSQDPDWPESASSWLRVVPWGFRKELNWIANEYGNPPIYITENGFSDYGGLNDTDRVLYYTEHLKEMLKAIHIDEVNVVGYTAWSLVDNFEWLRGYTERFGIHEVNFNDPSRPRVPKESAKVLTEIFNTRRIPERFLD"}}, "key": {"recombinant RfBGluc-1": {"tested_on": "recombinant RfBGluc-1", "assay": "Inhibition of recombinant RfBGluc-1", "assay_type": "biochemical, Reticulitermes flavipes", "settings": "25° C., sodium acetate 0.1M pH 7, 2 mM p-nitrophenyl-B-D-glucopyranoside", "experimental": "Assays were conducted at 25° C. in sodium acetate buffer (0.1M, pH 7) using 2 mM p-nitrophenyl-B-D-glucopyranoside as the substrate."}, "RfLac6": {"tested_on": "RfLac6", "assay": "Recombinant laccase Lac6 inhibition and enhancement, 2,6-DMP oxidation", "assay_type": "biochemical, Reticulitermes flavipes", "settings": "1 mM 2,6-DMP, pH 7.5"}, "[1]": {"tested_on": "R. flavipes worker gut esterases", "assay": "Gut esterase activity toward naphthyl esters, native PAGE and colorimetric microplate assays", "assay_type": "biochemical, Reticulitermes flavipes", "settings": "foregut/salivary gland, midgut, hindgut", "experimental": "Dissections, protein preparation, centrifugation protocols, and protein assays: All manipulations were performed on ice. For tissue localization studies, 25 termite worker guts were removed and dissected into the three regions of foregut/salivary gland, midgut and hindgut. Each gut region preparation was homogenized using a Tenbroeck glass homogenizer in potassium phosphate (0.1M, pH 7.6), and then centrifuged for 15 min at 14,000×g and 4° C. The supernatant was saved for assays and the pellet discarded.\nGut esterase activity toward naphthyl esters with varying carbon chain lengths: Activities toward different naphthyl ester substrates were investigated in different regions of the termite gut using native PAGE, as above, the results being shown in FIGS. 4 and 5. […].\n. Differences in activity between α-naphthyl butyrate and acetate were not as evident on native PAGE as in activity assays. Thus, the majority/greatest diversity of gut esterase activity in R. flavipes is located in the midgut, and that activity is greatest toward the 3-carbon ester naphthyl propionate. […]"}, "[2]": {"substrate": "Oc1ccccc1O", "assay": "purified protein, by the assay type", "settings": "other: RfLacA"}, "[3]": {"substrate": "COc1cccc(OC)c1O", "assay": "purified protein, by the assay type", "settings": "other: RfLacA; substrate concentration providing ½ maximal activity"}, "[4]": {"substrate": "COc1cc(/C=C/C(=O)O)cc(OC)c1O", "assay": "purified protein, by the assay type", "settings": "other: RfLacA"}, "[5]": {"substrate": "O=[N+]([O-])c1ccc(O[C@@H]2O[C@H](CO)[C@@H](O[C@@H]3O[C@H](CO)[C@@H](O[C@@H]4O[C@H](CO)[C@@H](O)[C@H](O)[C@H]4O)[C@H](O)[C@H]3O)[C@H](O)[C@H]2O)cc1", "assay": "Activity of recombinant RfBGluc-1 towards synthetic nitrophenol substrates, kinetic microplate assay", "assay_type": "biochemical, Reticulitermes flavipes", "settings": "other: synthetic NP substrates; read kinetically at 420 nm; mean ± standard error, 3-5 replicates; pH 6.0", "experimental": "(§1) All initial characterization assays took place in 0.1 M sodium acetate buffer (pH 6) using 2 μL of recombinant enzyme preparation (=1.58 μg protein per assay) in a total reaction volume of 250 μL. Synthetic p-nitrophenol substrates (Table 1) were tested in direct kinetic assays using a microplate reader. Reactions were initiated by adding 248 μL assay buffer to 2 μL protein. Assays were read at 420 nm every 20 sec for 5 min to yield mean velocity data in mOD/min. Specific activity was determined with the p-nitrophenol extinction coefficient of 0.6605 mM^−1 cm^−1. All results were averaged from three independent replicates, each conducted in triplicate."}, "[6]": {"substrate": "O=[N+]([O-])c1ccc(O[C@@H]2O[C@H](CO)[C@@H](O[C@@H]3O[C@H](CO)[C@@H](O)[C@H](O)[C@H]3O)[C@H](O)[C@H]2O)cc1", "assay": "Activity of recombinant RfBGluc-1 towards synthetic nitrophenol substrates, kinetic microplate assay", "assay_type": "biochemical, Reticulitermes flavipes", "settings": "other: synthetic NP substrates; read kinetically at 420 nm; mean ± standard error, 3-5 replicates; pH 6.0", "experimental": "as §1"}, "[7]": {"substrate": "O=[N+]([O-])c1ccccc1O[C@@H]1O[C@H](CO)[C@@H](O)[C@H](O)[C@H]1O", "assay": "Activity of recombinant RfBGluc-1 towards synthetic nitrophenol substrates, kinetic microplate assay", "assay_type": "biochemical, Reticulitermes flavipes", "settings": "other: synthetic NP substrates; read kinetically at 420 nm; mean ± standard error, 3-5 replicates; pH 6.0", "experimental": "as §1"}, "[8]": {"substrate": "O=[N+]([O-])c1ccc(O[C@@H]2O[C@H](CO)[C@@H](O)[C@H](O)[C@H]2O)cc1", "assay": "Activity of recombinant RfBGluc-1 towards synthetic nitrophenol substrates, kinetic microplate assay", "assay_type": "biochemical, Reticulitermes flavipes", "settings": "other: synthetic NP substrates; read kinetically at 420 nm; mean ± standard error, 3-5 replicates; pH 6.0", "experimental": "as §1"}, "[9]": {"substrate": "O=[N+]([O-])c1ccc(O[C@@H]2O[C@H](CO)[C@@H](O[C@@H]3O[C@H](CO)[C@@H](O[C@@H]4O[C@H](CO)[C@@H](O[C@@H]5O[C@H](CO)[C@@H](O)[C@H](O)[C@H]5O)[C@H](O)[C@H]4O)[C@H](O)[C@H]3O)[C@H](O)[C@H]2O)cc1", "assay": "Activity of recombinant RfBGluc-1 towards synthetic nitrophenol substrates, kinetic microplate assay", "assay_type": "biochemical, Reticulitermes flavipes", "settings": "other: synthetic NP substrates; read kinetically at 420 nm; mean ± standard error, 3-5 replicates; pH 6.0", "experimental": "as §1"}, "[10]": {"substrate": "C[C@H]1O[C@@H](Oc2ccc([N+](=O)[O-])cc2)[C@H](O)[C@@H](O)[C@H]1O", "assay": "Activity of recombinant RfBGluc-1 towards synthetic nitrophenol substrates, kinetic microplate assay", "assay_type": "biochemical, Reticulitermes flavipes", "settings": "other: synthetic NP substrates; read kinetically at 420 nm; mean ± standard error, 3-5 replicates; pH 6.0", "experimental": "as §1"}, "[11]": {"substrate": "O=[N+]([O-])c1ccccc1O[C@@H]1OC[C@@H](O)[C@H](O)[C@H]1O", "assay": "Activity of recombinant RfBGluc-1 towards synthetic nitrophenol substrates, kinetic microplate assay", "assay_type": "biochemical, Reticulitermes flavipes", "settings": "other: synthetic NP substrates; read kinetically at 420 nm; mean ± standard error, 3-5 replicates; pH 6.0", "experimental": "as §1"}, "[12]": {"substrate": "OC[C@H]1O[C@@H](O[C@H]2[C@H](O)[C@@H](CO)OC(O)[C@@H]2O)[C@H](O)[C@@H](O)[C@@H]1O", "assay": "Activity of recombinant RfBGluc-1 towards natural substrates, endpoint glucose detection assay", "assay_type": "biochemical, Reticulitermes flavipes", "settings": "other: natural substrates; endpoint at 505 nm, glucose detection reagent; mean ± standard error", "protocol": "(§2) Natural carbohydrate substrates (Table 2) were tested in endpoint assays in which color development was enabled using 439-90901 glucose-mutarose detection reagent (Wako Chemical; Richmond, Va.). Assays were conducted in 125 μL for 5 min at room temperature as described above and stopped with the addition of 125 μL glucose detection reagent. After 1 min, the absorbance was read at 505 nm."}, "[13]": {"substrate": "OCc1ccccc1O[C@@H]1O[C@H](CO)[C@@H](O)[C@H](O)[C@H]1O", "assay": "Activity of recombinant RfBGluc-1 towards natural substrates, endpoint glucose detection assay", "assay_type": "biochemical, Reticulitermes flavipes", "settings": "other: natural substrates; endpoint at 505 nm, glucose detection reagent; mean ± standard error", "protocol": "as §2"}, "[14]": {"settings": "substrate concentration providing ½ maximal activity"}}, "note": "“Also recorded” adds a separate entry of the source."}
{"molecule": "fluoromethyl cellobiose [fluoromethyl cellobiose (FMCB)]", "values": [{"measurement": "inhibition of recombinant RfBGluc-1", "setting": "recombinant RfBGluc-1", "result": "concentration-dependent inhibition"}]}
{"molecule": "O=C(O)CN(CCN(CC(=O)O)CC(=O)O)CC(=O)O", "note": "[EDTA, ethylenediaminetetraacetate]", "values": [{"measurement": "effect on Cell-1 CMC endoglucanase activity", "setting": "Cell-1; incubations over a 5-day period at about 25° C.", "result": "slightly inhibitory"}, {"measurement": "effect on Cell-1 temperature stability", "setting": "Cell-1; pre-incubation at 60° C. and 70° C., 0-60 min", "result": "rapidly reduced temperature stability; also recorded: reduces temperature stability"}, {"measurement": "effect on RfLac6 activity", "setting": "RfLac6; at concentrations as low as 0.01 mM", "result": "completely inhibited"}]}
{"molecule": "O=C(O)CS", "note": "[TGA, thioglycolic acid]", "values": [{"measurement": "concentration up to which RfLac6 activity is enhanced, inhibitory above", "setting": "RfLac6", "result": "≤ 10", "unit": "mM"}]}
{"molecule": "OC[C@@H]1[C@@H](O[C@@H]2O[C@H](CO)[C@@H](O)[C@H](O)[C@H]2O)[C@H](O)[C@@H](O)c2nccn21", "note": "[cellobioimidazole (CBI), cellobioimidazole]", "values": [{"measurement": "inhibition of recombinant RfBGluc-1", "setting": "recombinant RfBGluc-1", "result": "concentration-dependent inhibition"}]}
{"molecule": "CCC(=O)Oc1cccc2ccccc12", "note": "[α-naphthyl propionate]", "values": [{"measurement": "gut esterase activity toward the substrate", "setting": "[1]", "result": "significantly greatest activity"}]}
{"molecule": "CCCCCCCC(=O)Oc1cccc2ccccc12", "note": "[α-naphthyl caprylate]", "values": [{"measurement": "gut esterase activity toward the substrate", "setting": "[1]", "result": "lowest esterase staining activity"}]}
{"molecule": "B1", "values": [{"measurement": "Vmax", "setting": "[2]", "result": 15.4, "unit": "µM/min"}, {"measurement": "Km", "setting": "[2]; [14]", "result": 17527, "unit": "µM"}, {"measurement": "Km", "setting": "[3]", "result": 34888, "unit": "µM"}, {"measurement": "Vmax", "setting": "[3]", "result": 0.26, "unit": "µM/min"}, {"measurement": "Vmax", "setting": "[4]", "result": 0.247, "unit": "µM/min"}, {"measurement": "Km", "setting": "[4]; [14]", "result": 5022, "unit": "µM"}]}
{"molecule": "B2", "values": [{"measurement": "Km", "setting": "[5]", "result": "1630 ± 500", "unit": "µM"}, {"measurement": "Vmax", "setting": "[5]", "result": 22.6, "unit": "µmol/min/mg"}, {"measurement": "Km", "setting": "[6]", "result": "1560 ± 40", "unit": "µM"}, {"measurement": "Vmax", "setting": "[6]", "result": 13.8, "unit": "µmol/min/mg"}, {"measurement": "Km", "setting": "[7]", "result": "1580 ± 190", "unit": "µM"}, {"measurement": "Vmax", "setting": "[7]", "result": 4.2, "unit": "µmol/min/mg"}, {"measurement": "Km", "setting": "[8]", "result": "1660 ± 70", "unit": "µM"}, {"measurement": "Vmax", "setting": "[8]", "result": 22.9, "unit": "µmol/min/mg"}, {"measurement": "Km", "setting": "[9]", "result": "590 ± 10", "unit": "µM"}, {"measurement": "Vmax", "setting": "[9]", "result": 16.6, "unit": "µmol/min/mg"}, {"measurement": "Km", "setting": "[10]", "result": "900 ± 70", "unit": "µM"}, {"measurement": "Vmax", "setting": "[10]", "result": 12.6, "unit": "µmol/min/mg"}, {"measurement": "Km", "setting": "[11]", "result": "7570 ± 1170", "unit": "µM"}, {"measurement": "Vmax", "setting": "[11]", "result": 8.77, "unit": "µmol/min/mg"}, {"measurement": "Km", "setting": "[12]", "result": "630 ± 20", "unit": "µM"}, {"measurement": "Vmax", "setting": "[12]", "result": 218, "unit": "µmol/min/mg"}, {"measurement": "Km", "setting": "[13]", "result": "34300 ± 14750", "unit": "µM"}, {"measurement": "Vmax", "setting": "[13]", "result": 278, "unit": "µmol/min/mg"}]}
